The text below walks through data of patent US20030059769, “High affinity nucleic acid ligands to lectins” (published 2003).

For orientation: Kd means the equilibrium constant for the complex coming apart. Read a low Kd as a tighter complex. Broadly, the EC50 is the midpoint of the concentration-response curve. A high value points to a need for much substance. What is called IC50 is the concentration that gives 50% inhibition. Higher therefore signals lower potency.

For data set [1], the target named is T1, P-selectin (PS-Rg) (Homo sapiens, UniProt P16109 P16109:42-321). Nature of the data set: filter; HSMC; SLeX IC50 2 nM. To be noted: tags: human IgG1 Fc fusion; chain copies: dimer; hairpin.
T1 sequence (P16109 42-321, one chain of several): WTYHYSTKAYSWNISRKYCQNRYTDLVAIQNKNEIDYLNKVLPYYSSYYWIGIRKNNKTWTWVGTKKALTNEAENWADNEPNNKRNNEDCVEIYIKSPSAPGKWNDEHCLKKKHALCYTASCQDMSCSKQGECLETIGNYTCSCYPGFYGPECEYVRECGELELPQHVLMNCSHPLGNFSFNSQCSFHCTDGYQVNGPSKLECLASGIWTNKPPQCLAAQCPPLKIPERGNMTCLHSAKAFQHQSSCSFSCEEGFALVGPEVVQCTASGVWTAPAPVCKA
The target in data set [2] is P-selectin on activated platelets (Homo sapiens, UniProt P16109 P16109:42-830). Nature of the data set: flow; biotinylated, SA-PE; divalent cation dependent; blocked by G1 antibody. To be noted: hairpin.
Chain of P-selectin on activated platelets (P16109 42-830, one chain of several): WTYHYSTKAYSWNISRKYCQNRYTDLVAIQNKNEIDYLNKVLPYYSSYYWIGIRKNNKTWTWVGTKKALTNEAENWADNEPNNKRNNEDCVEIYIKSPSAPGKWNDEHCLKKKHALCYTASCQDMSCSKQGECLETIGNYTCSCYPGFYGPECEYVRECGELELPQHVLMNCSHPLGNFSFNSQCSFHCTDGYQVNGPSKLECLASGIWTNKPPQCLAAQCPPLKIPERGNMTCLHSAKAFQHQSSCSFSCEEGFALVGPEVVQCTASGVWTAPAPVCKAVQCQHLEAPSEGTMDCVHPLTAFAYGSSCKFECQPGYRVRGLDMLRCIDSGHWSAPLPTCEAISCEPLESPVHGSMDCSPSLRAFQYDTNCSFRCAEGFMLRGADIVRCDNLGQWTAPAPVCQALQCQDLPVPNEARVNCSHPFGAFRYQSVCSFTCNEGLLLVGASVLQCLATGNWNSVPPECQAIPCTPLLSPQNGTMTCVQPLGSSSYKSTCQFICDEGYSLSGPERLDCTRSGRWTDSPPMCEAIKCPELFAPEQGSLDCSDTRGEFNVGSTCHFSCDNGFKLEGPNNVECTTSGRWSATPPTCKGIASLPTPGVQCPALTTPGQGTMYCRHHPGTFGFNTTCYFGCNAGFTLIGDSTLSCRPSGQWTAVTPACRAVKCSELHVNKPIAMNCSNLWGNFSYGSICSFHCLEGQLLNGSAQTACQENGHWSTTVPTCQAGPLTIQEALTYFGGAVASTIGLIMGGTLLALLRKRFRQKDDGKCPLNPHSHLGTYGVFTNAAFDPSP
Method: To detect oligonucleotide ligand binding, 15 μl BB+ containing ligand conjugated to either FITC or biotin was incubated 20-30 minutes at 4° C. with 10 μl platelet suspension. The FITC-figand incubations were diluted to 200 μl with BB+ and analyzed on a FACSCaliber flow cytometer. The biotinylated-ligand reactions were incubated with streptavidin-phycoehrin (SA-PE) (Becton Dickinson) for 20 minutes at 4° C., before dilution and analysis. Wash steps with 500 μl BB+ and 700 ×g spins have been used without compromising the quality of the results.
Since the P-selectin ligands were isolated against purified protein, their ability to bind P-selectin presented in the context of a cell surface was determined in flow cytometry experiments with activated human platelets. Platelets were gated by side scatter and CD61 expression. […] The expression of P-selectin was monitored with anti-CD62P monoclonal antibody (Becton Dickinson).
In data set [3] the target is T2, L-selectin (LS-Rg) (Homo sapiens, UniProt P14151 P14151:39-332).
T2 sequence: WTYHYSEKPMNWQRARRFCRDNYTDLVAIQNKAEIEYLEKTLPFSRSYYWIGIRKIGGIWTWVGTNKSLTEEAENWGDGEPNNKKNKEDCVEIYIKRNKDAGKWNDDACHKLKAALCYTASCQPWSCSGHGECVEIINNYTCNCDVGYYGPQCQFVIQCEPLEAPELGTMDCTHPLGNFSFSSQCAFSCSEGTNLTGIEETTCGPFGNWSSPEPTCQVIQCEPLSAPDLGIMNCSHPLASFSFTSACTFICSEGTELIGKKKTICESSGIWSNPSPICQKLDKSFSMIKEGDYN
Nature of the data set: filter; upper stem and loop only. To be noted: tags: human IgG2 Fc fusion; chain copies: dimer; hairpin. Here is the method:
(§1) As described in SELEX Patent Applications, a nitrocellulose filter partitioning method was used to determine the affinity of RNA ligands for LS-Rg and for other proteins. Filter discs (nitrocellulose/cellulose acetate mixed matrix, 0.45 μm pore size, Millipore) were placed on a vacuum manifold and washed with 3 ml of SHMCK 140 buffer under vacuum. Reaction mixtures, containing ³²P labeled RNA pools and unlabeled LS-Rg, were incubated in SHMCK 140 for 10-20 min at 37° C., and then immediately washed with 3 ml SHMCK 140. The filters were air-dried and counted in a Beckman LS6500 liquid scintillation counter without fluor. Alternatively, binding studies employed 96 well micro-titer manifolds essentially as described in Example 13, paragraph E.
Predictions of minimal high affinity sequences for family 1 ligands can be made and serve as a partial test of the postulated secondary structure.

Data set [4] concerns the target T1, P-selectin (PS-Rg). The data set is described as follows: filter; 37 C, HSMC. To be noted: tags: human IgG1 Fc fusion; chain copies: dimer; label: 32P.
Data set [5] concerns the target T3, E-selectin (ES-Rg) (Homo sapiens, UniProt P16581 P16581:22-556).
T3 sequence: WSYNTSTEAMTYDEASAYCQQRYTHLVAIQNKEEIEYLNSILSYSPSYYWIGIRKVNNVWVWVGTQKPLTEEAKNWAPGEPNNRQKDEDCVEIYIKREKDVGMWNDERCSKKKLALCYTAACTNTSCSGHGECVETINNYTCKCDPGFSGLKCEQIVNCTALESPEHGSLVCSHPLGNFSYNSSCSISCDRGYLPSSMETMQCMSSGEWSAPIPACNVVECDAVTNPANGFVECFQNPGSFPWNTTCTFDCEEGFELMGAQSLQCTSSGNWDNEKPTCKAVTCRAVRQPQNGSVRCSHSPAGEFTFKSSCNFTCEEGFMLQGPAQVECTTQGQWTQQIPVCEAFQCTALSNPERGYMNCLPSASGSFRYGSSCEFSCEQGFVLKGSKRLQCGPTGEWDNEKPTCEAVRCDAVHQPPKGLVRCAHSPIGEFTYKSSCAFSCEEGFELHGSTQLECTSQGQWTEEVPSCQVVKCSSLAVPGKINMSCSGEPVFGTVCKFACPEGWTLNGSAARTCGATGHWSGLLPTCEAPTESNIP
Nature of the data set: filter; specificity control. The conditions noted are these: tags: human IgG1 Fc fusion; chain copies: dimer (inferred); label: 32P. Here is the method: The affinity of P-selectin ligands to ES-Rg, LS-Rg and CD22β-Rg were determined by nitrocellulose partitioning. […] In general, a ligand's affinity for ES-Rg and LS-Rg is at least 10⁴-fold lower than for PS-Rg. […] The specificity of oligonucleotide ligand binding contrasts sharply with the binding of cognate carbohydrates by the selectins and confirms the proposition that SELEX ligands will have greater specificity than carbohydrate ligands.

Data set [6] has as its target T2, L-selectin (LS-Rg). Nature of the data set: filter; 37 C; lacks 7-nt bulge. The conditions noted are these: tags: human IgG2 Fc fusion; chain copies: dimer; label: 32P; hairpin lacking bulge. Here is the method: as §1
These calculations assume two ligand binding sites per chimera.

Data set [7] has as its target T4, soluble L-selectin (Homo sapiens, UniProt P14151 P14151:39-332).
T4 sequence: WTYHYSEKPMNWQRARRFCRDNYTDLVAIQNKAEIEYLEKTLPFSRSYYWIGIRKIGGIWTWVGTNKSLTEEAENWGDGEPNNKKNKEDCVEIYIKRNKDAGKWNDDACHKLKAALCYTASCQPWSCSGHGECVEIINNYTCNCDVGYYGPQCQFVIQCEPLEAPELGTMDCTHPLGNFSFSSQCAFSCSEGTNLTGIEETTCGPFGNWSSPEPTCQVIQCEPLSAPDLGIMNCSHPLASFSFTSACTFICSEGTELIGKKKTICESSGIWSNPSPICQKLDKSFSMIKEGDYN
Nature of the data set: filter; binding undetectable, 37 C. To be noted: tags: R&D Systems.

Data set [8] has as its target T4, soluble L-selectin. Nature of the data set: filter; 37 C, soluble L-selectin. To be noted: tags: R&D Systems; label: 32P. How it is done:
Unless otherwise indicated, all materials used in the 2′-F RNA SELEX against the L-selectin/IgG2 chimera, LS-Rg, were identical to those of Examples 7, paragraph A and 13, paragraph A. SHMCK-140 buffer, used for all SELEX and binding experiments, was 1 mM CaCl₂, 1 mM MgCC₂, 140 mM NaCl, 5 mM KCl. and 20 mM HEPES, pH 7.4. A soluble form of L-selectin, corresponding to the extracellular domains, was purchased from R&D Systems and used for some nitrocellulose filter binding experiments.
as §1

Data set [9] has as its target T2, L-selectin (LS-Rg). The data set is described as follows: filter; truncate at base of lower stem. To be noted: tags: human IgG2 Fc fusion; chain copies: dimer; hairpin.
The target of data set [10] is T1, P-selectin (PS-Rg). Nature of the data set: filter; 37 C; 0.01 nM at 4 C. The conditions noted are these: tags: human IgG1 Fc fusion; chain copies: dimer; label: 32P.
The target in data set [11] is T3, E-selectin (ES-Rg). The data set is described as follows: filter; specificity control. To be noted: tags: human IgG1 Fc fusion; chain copies: dimer (inferred); label: 32P. The source holds these as a separate data set.
Data set [12] has as its target T2, L-selectin (LS-Rg). The data set is described as follows: inhibition; sialyl-LewisX competition ELISA. The conditions noted are these: tags: human IgG2 Fc fusion; chain copies: 2 (stated dimer). Here is the method:
SLe^X-BSA (Oxford GlycoSystems, Oxford, UK) in 1X PBS, without CaCl₂, and MgCl₂, (GIBCO/BRL) was immobilized at 100 ng/well onto a microtiter plate by overnight incubation at […]. The wells were blocked for 1 h with the assay buffer consisting of 20 mM HEPES, 111 mM NaCl, 1 mM CaCl₂, 1 mM MgCl₂, 5 mM KCl, 8.9 mM NaOH, final pH 8, and 1% globulin-free BSA (Sigma). The reaction mixtures, incubated for 90 min with orbital shaking, contained 5 nM L-Selectin-Rg, a 1:100 dilution of anti-human IgG-peroxidase conjugate (Sigma), and 0 - 50 ruM of competitor in assay buffer. After incubation, the plate was washed with BSA-free assay buffer to remove unbound chimera-antibody complex and incubated for 25 min with O-phenylenediamine dihydrochloride peroxidase substrate (Sigma) by shaking in the dark at 22°0 C. Absorbance was read at 450 nm on a Bio-Kinetics Reader, Model EL312e (Bio-Tek Instruments, Laguna Hills, Calif.). Values shown represent the mean ±s.e from duplicate, or triplicate, samples from one representative experiment.
Sialyl Lewis^X is the minimal carbohydrate ligand bound by selecting.
(In general: In an ELISA, binding on a coated surface is turned into a signal by an enzyme label.)

The target of data set [13] is T5, L-selectin on PBMC / lymphocytes (Homo sapiens, UniProt P14151 P14151:39-372).
T5 sequence: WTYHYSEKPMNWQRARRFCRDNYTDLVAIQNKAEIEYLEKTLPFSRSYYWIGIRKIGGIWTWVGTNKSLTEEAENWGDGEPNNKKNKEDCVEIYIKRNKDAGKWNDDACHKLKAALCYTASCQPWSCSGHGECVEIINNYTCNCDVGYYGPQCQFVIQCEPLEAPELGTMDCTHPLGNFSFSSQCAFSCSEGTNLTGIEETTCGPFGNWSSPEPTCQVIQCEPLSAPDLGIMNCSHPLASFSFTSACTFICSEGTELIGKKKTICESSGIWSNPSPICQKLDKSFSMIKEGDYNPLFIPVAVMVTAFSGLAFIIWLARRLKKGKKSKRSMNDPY
The data set is described as follows: flow; half-saturation on human lymphocytes; divalent cation dependent. The conditions noted are these: label: 32P or 5'-fluorescein (cells); hairpin. From the text: (§2) A variety of monomeric nucleic acid ligands and multivalent Complexes have been examined in flow cytometry.

For data set [14], the target named is T5, L-selectin on PBMC / lymphocytes. The data set is described as follows: flow; half-saturation.
Text: as §2

Data set [15] addresses T2, L-selectin (LS-Rg). The data set is described as follows: filter; room temperature; Table 13 prints 110 nM (probably pM), 380 pM at 37 C. The conditions noted are these: tags: human IgG2 Fc fusion; chain copies: 2 (stated dimer). How it is done:
As described in SELEX Patent Applications and in Example 7, paragraph C, a nitrocellulose filter partitioning method was used to determine the affinity of ssDNA ligands for LS-Rg and for other proteins. For these experiments a Gibco BRL 96 well manifold was substituted for the 12 well Millipore manifold used in Example 7 and radioactivity was determined with a Fujix BAS100 phosphorimager. Bindin, data were analyzed as described in Example 7, paragraph C.

For data set [16], the target named is T4, soluble L-selectin. Nature of the data set: filter; binding undetectable; Table 16 sequence differs from SEQ 358. To be noted: tags: R&D Systems.

As for CUCAACGAGCCAGGAACAUCGACGUCAGCAAACGCGAG (ssRNA, 2'-F on all C and U) [PF377s1], the Kd with P-selectin (PS-Rg) [1] is 0.06 nM. For the same molecule, the EC50 in data set [2] is ~0.05 nM.

UGCGUGUUUUCAAGCA (ssRNA, 2'-F on all C and U) [LF1514T1]: the binding signal in the data set with L-selectin (LS-Rg) [3] was ≥ 100 fold weaker than LF1514.

B1: PF377 (ssRNA)
RNA: GGGAGACAAGAAUAAACGCUCAACGAGCCAGGAACAUCGACGUCAGCAAACGCGAGCGCAACCAGUAACACCUUCGACAGGAGGCUCACAACAGGC
modifications: 2'-F on all C and U
For B1, the results for the Kd with P-selectin (PS-Rg) [4] and with E-selectin (ES-Rg) [5] were 0.0185 nM and 2300 nM, respectively.

B2: LF1512 (ssRNA)
RNA: GGGAGGACGAUGCGGCACACGUGUUUUCAAGUGUGCUCCUGGGAUCAGACGACUCGCCCGA
modifications: 2'-F on all C and U
Regarding B2, binding in the data set with L-selectin (LS-Rg) [6] was put at a Kd of 315 nM.

B3: LF1528 (ssRNA)
RNA: GGGAGGACGAUGCGGUUAGGUCAAUGAUCUUAGUUUUCGAUUCGUCAGACGACUCGCCCGA
modifications: 2'-F C and U
Take B3: in the data set with soluble L-selectin [7], the binding result is “no binding”.

B4: LF1516 (ssRNA)
RNA: GGGAGGACGAUGCGGUCAUUCUCUAAAAAAGUAUUCCGUACCUCCACAGACGACUCGCCCGA
modifications: 2'-F on all C and U
In the data set with soluble L-selectin [8], B4 came in with a dissociation constant Kd of 1.3 nM. GGUACCUCAAAUUGCGUGUUUUCAAGCAGUAUC (ssRNA, 2'-F on all C and U) [LF1514T4]: the binding signal with L-selectin (LS-Rg) [9] was < 2 fold weaker than LF1514.

B5: LF1816 (ssRNA)
RNA: GGGAGGACGAUGCGGUGCUAUUCUUAAGCGGCGUGUAAAUCAAGCUAGAUCAUCGUCAGACGACUCGCCCGA
modifications: 2'-F C and U
With B5, in the data set with soluble L-selectin [7], the binding result is on record as “no binding”.

B6: PA350 (ssRNA)
RNA: GGGAGACAAGAAUAAACGCUCAAGCCCCAAACGCAAGUGAGCAUCCGCAACAGGGAAGAAGACAGACGAUUGAUUCGACAGGAGGCUCACAACAGGC
modifications: 2'-NH2 on all C and U
For the molecule B6, the figures for the Kd with P-selectin (PS-Rg) [10] and with E-selectin (ES-Rg) [11] were 0.06 nM and 375 nM, respectively. Regarding TAGCCAAGGTAACCAGTACAAGGTGCTAAACGTAATGGCTTCGGCTTAC (ssDNA) [LD201T1], the IC50 with L-selectin (LS-Rg) [12] was ~3 nM. Further, in [13], the dissociation constant Kd was found to be 3 nM. In the case of TAGCCAAGGTAACCAGTACAAGGTGCTAAACGTAATGGCTTCGGCTTAC (ssDNA, biotin, multivalent on streptavidin) [bio-LD201T1/streptavidin], the EC50 in [14] (label: labeled streptavidin) is ~0.15 nM.

B7: LD201T1 branched dimer (ssDNA)
DNA: TAGCCAAGGTAACCAGTACAAGGTGCTAAACGTAATGGCTTCGGCTTAC
modifications: two copies linked 3' ends via five-unit ethylene glycol spacers to 3'-3' symmetric linker
As to B7, in [14] (label: 5' fluorescein), the EC50 was ~0.15 nM.

B8: LD233 (ssDNA)
DNA: CTACCTACGATCTGACTAGCCACGACAGAGAACAAGGCGTTAGACGTTATCCGACCACGGCTTACTCTCATGTAGTTCC
For the molecule B8, the Kd in the data set with L-selectin (LS-Rg) [15] was found to be 0.12 nM.

B9: LF1817 (ssRNA)
RNA: GGGAGGACGAUGCGGUGCUUAAACAACGCGUGAAUCGAGUUCAUCCACUCCUCCUCAGACGACUCGCCCGA
modifications: 2'-F on all C and U
B9 had a dissociation constant (Kd) with soluble L-selectin [8] of 2.3 nM.

B10: LF1535 (ssRNA)
RNA: GGGAGGACGAUGCGGCAAUGUGUUUCUCAAAUUGCUUUCUCCCUUCAGACGACUCGCCCGA
modifications: 2'-F C and U
For B10, the binding result with soluble L-selectin [16] is “no binding”.
